Consider 40 sequences from the nanobody polyreactivity screen of Harvey et al. (2022).

The data set can be described thus: yeast display, Sf9 membrane polyspecificity reagent, FACS + sequencing; frameworks hold sequencing errors. In short, it runs like this:
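Sorting gates, low and high (top ~1%), were placed on anti-HA fluorescence to track expression and on streptavidin fluorescence to track reagent binding. A clone's polyreactivity label is taken from the gate it came out of. The reagent was 10% biotinylated, detergent-solubilized Sf9 membrane, applied for 1 hour at 4 °C to galactose-induced yeast display cells.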
For “QVQLVESGGGLVQAGGSLRLSCAASGFTFRTNAMGWYRQAPGKEREFVATITRRGGSTYYADSVKGRFTISRDNAKKTVYLQLNSLKPEDTAVYYCNAVFSSQEYEYWGQGTQVTVSS”, the “polyreactivity (PSR sort gate)” value is “high polyreactivity”.

For “QVQLVESGGGLVQAGGSLRLSCAASGFTFRVYAMGWYRQAPGKERELVASITWSGASTYYADSVKGRFTISRDNAKNTVYLQMNSLKPEDTAVYYCAAKYSDYQYGRYYYWGQGTQVTVSS”, the “polyreactivity (PSR sort gate)” value is listed as “high polyreactivity”.

Take “QVQLVESGGGLVQAGGSLRLSCAASGFTFRWYAIGWYSQAPGKEREFVATISTRGGNTYYADSVKGRFTISRDNAKNTVYLQMNSLKPEDTAVYYSAAVGYAAYHRMDYWGQGTQVNVSS”: the “polyreactivity (PSR sort gate)” value was “high polyreactivity”.

Regarding “QVQLVESGGGLVQAGGSLRLSCAASGFTFRWYDMGWYRQAPGKERELVAAIDASDGSTYYADSVKGRFTISRDNAKNTVYLQMNSLKPEDTAVYYCAADSYYRYYWGQGTQVTVSS”, the “polyreactivity (PSR sort gate)” value is on record as “high polyreactivity”.

As to “QVQLVESGGGLVQAGGSLRLSCAASGFTFRWYDMGWYRQAPGKERELVAAITWRGDNTYYADSVKGRFTISRDNAKNTVYLQMNSLKPEDTAVYYCAAAWPTFISDLSGVDYWGQGTQVTVSS”, the “polyreactivity (PSR sort gate)” value is “low polyreactivity”.

Consider “QVQLVESGGGLVQAGGSLRLSCAASGFTFRYNAMGWYRQAPGKERELVAAITNGGSTYADSVKGRFTISRDNAKNTVYLQMNSLKPEDTAVYYCAADYFVLTYYLWSYSPYKSFYYWGQGTQVTLSS”, for which the “polyreactivity (PSR sort gate)” value is on record as “low polyreactivity”.

Take “QVQLVESGGGLVQAGGSLRLSCAASGFTFRYNAMGWYRQAPGKERELVAAITSDVSTNYADSVKGRFTISRDNAKNTVYLEMNSLKAEDTAVYYCAKGTAKRIVGRSPGNTYEDHYWGQGTEVTVSS”: the “polyreactivity (PSR sort gate)” value is “low polyreactivity”.

“QVQLVESGGGLVQAGGSLRLSCAASGFTFRYYAMGWYRQAPGKEREFVAAIRRSGANTYYADSVKGRFTISRDNAKNTVYLQMNSLKPEDTAVYYCGTRLRGSGRLYNYWGQGTQVTVSS”: the “polyreactivity (PSR sort gate)” value is “high polyreactivity”.

On to “QVQLVESGGGLVQAGGSLRLSCAASGFTFRYYAMGWYRQAPGKEREFVAAISWSGGSTYYADSVKGRFTISRDNAKNTVYLQMNSLKPEDTAVYYCNRVPRARKGDYWGQGTQVTVSS”, for which the “polyreactivity (PSR sort gate)” value was “high polyreactivity”.

Consider “QVQLVESGGGLVQAGGSLRLSCAASGFTFRYYAMGWYRQAPGKEREFVAAITRSGGRTYYADSVKGRFTISRDNAKNTVYLQMNSLKPEDTAVYYCAARYVSRFDWGQGTQVTVSS”, for which the “polyreactivity (PSR sort gate)” value is “high polyreactivity”.

For “QVQLVESGGGLVQAGGSLRLSCAASGFTFRYYAMGWYRQAPGKERELVAAISWSGASTYYADSVKGRFTISRDNAKNTVYLQMNSLKPEDTAVYYCAADIPGTYYYWGQGTEVTVSS”, the “polyreactivity (PSR sort gate)” value is given as “high polyreactivity”.

For “QVQLVESGGGLVQAGGSLRLSCAASGFTFRYYAMGWYRQAPGKERELVAAITRSGGSTSYADSVKGRFTISRDNAKNNVYLQMNSLKPEDTAVYYCNTSTSRVPGNGDYWGQGTQVTVSS”, the “polyreactivity (PSR sort gate)” value is “high polyreactivity”.

Turning to “QVQLVESGGGLVQAGGSLRLSCAASGFTFRYYAMGWYRQAPGKERELVAAITSGDSTYYADSVKGRFTISRDKAKNTVYLQMNSLKPEDTAVYYCAAYSWLYEGYEYWGQGTQVTVSS”, the “polyreactivity (PSR sort gate)” value is listed as “high polyreactivity”.

For “QVQLVESGGGLVQAGGSLRLSCAASGFTFRYYAMGWYRQAPGKERELVASISRSGSGTFYADSVKGRFTISRDNAKNTVYLQMNSLKPEDTAVYYCNAVSAAKIPFQKYGYWGQGTQVTVSS”, the “polyreactivity (PSR sort gate)” value is “high polyreactivity”.

For “QVQLVESGGGLVQAGGSLRLSCAASGFTFRYYAMGWYRQAPGKERELVATISRGGSTNYVDSVKGRFTISRDNAKNTVYLQMNRLKPEDPAVYSCNARYKGWWVSTDSSTDDYWGQGTQVTVSS”, the “polyreactivity (PSR sort gate)” value is recorded as “high polyreactivity”.

With “QVQLVESGGGLVQAGGSLRLSCAASGFTFRYYAMGWYRQAPGKERELVATITTSGGSTYYADSVKGRFTISRDNAKNTVYVQMNSLKPEDTAVYYCAADYYYGRRFRSWRDFNYWGQGTQVTVSS”, the “polyreactivity (PSR sort gate)” value is listed as “high polyreactivity”.

As for “QVQLVESGGGLVQAGGSLRLSCAASGFTFRYYAMGWYSQAPGKERELVAAITRSGGSTYYADSVKGRFTISRDNAKNTVYLQMNSLKPDDTGVYYCAARGHYRDGDEYWGQGTEVTVSS”, the “polyreactivity (PSR sort gate)” value is “high polyreactivity”.

Regarding “QVQLVESGGGLVQAGGSLRLSCAASGFTFRYYAMVWYRQAPGKERELVAAITSGDSTYYADSVKGLFTISRDNAKNTVYLQMNSLKPEDTAVYYCAAYSWLFEGYEYWGQGTIVTVSS”, the “polyreactivity (PSR sort gate)” value is listed as “high polyreactivity”.

Turning to “QVQLVESGGGLVQAGGSLRLSCAASGFTFRYYTLGWYRQAPGKERELVAVMRSTGSTNYADSVKGRFTISRDNAKNTVYLQMNSLKAEDTAVYYCNAARGWYNPPKYGSIGFDYWGQGTQVTVSS”, the “polyreactivity (PSR sort gate)” value is “high polyreactivity”.

Turning to “QVQLVESGGGLVQAGGSLRLSCAASGFTFRYYVMGWSRQAPGKESELVAAICWSGGSTYYADSVKVRFTISRDNAKNTVYLQMNRLKPEDTAFYYCNARRYFRTSQQPLYDYWGQGTQVTVSS”, the “polyreactivity (PSR sort gate)” value was “high polyreactivity”.

In the case of “QVQLVESGGGLVQAGGSLRLSCAASGFTFSAYAMGWYRQAPGKERELVVAISLSGGSTYYADSVKGRFTISRDNAKNTVYLQMNSLKPEDTAVYYCNADSYWHWGEWLYAPYDYWGQGTQVTVSS”, the “polyreactivity (PSR sort gate)” value is “low polyreactivity”.

In the case of “QVQLVESGGGLVQAGGSLRLSCAASGFTFSDNAMGWYRQAPGKERELVAASSRSGGRTYYADSVKGRFTISRDNAKNTVYLQMNSLKPEDTAVYYCNARRLSTGFDRYDYWGQGTQVTVSS”, the “polyreactivity (PSR sort gate)” value is “high polyreactivity”.

Regarding “QVQLVESGGGLVQAGGSLRLSCAASGFTFSDYAMGWYRQAPGKERELVAAISSSGGSTYYADSVKGRFTISRDNAKNTVYLQMNSLKPEDNAVYYCAASSYSFRYRYDTWWYYYWGQGTQVTVSS”, the “polyreactivity (PSR sort gate)” value is given as “high polyreactivity”.

Take “QVQLVESGGGLVQAGGSLRLSCAASGFTFSFYAMGWYRQAPGKERELVAGISKRGGSTYYADSVKGRFTISRDNAKNTVYLQMNSLKPEDTAVYYCAKRSSLYRSLVDYWGQGTQVTVSS”: the “polyreactivity (PSR sort gate)” value is “high polyreactivity”.

In the case of “QVQLVESGGGLVQAGGSLRLSCAASGFTFSGYDMGWYRQAPGKERELVAGISSVDHTYYADSVKGRFTISRDNAKNTVYLQMNSLKPEDTAVYYCAATLWPYYYVEYDYWGQGTEVTVSS”, the “polyreactivity (PSR sort gate)” value is on record as “low polyreactivity”.

Turning to “QVQLVESGGGLVQAGGSLRLSCAASGFTFSHYAMGWYRQAPGKEREVVADISRRGGRTYYADSVKGRFTISRDNAKNTVSLQMNSLKPEDTAVYYCAAPDESYSVWRLDGLDYWGQGTQVTVSS”, the “polyreactivity (PSR sort gate)” value is reported as “high polyreactivity”.

For the sequence “QVQLVESGGGLVQAGGSLRLSCAASGFTFSHYPMGWYRQAPGKERELVASISRRCGTTYYADSVKGRFTISRDNAKNTVYLQMNSLKPEDTAVYYCAVDLYIYYREYDYWGQGTQVTVSS”, the “polyreactivity (PSR sort gate)” value is listed as “high polyreactivity”.

Consider “QVQLVESGGGLVQAGGSLRLSCAASGFTFSINAMGWYRKAPGKERELVAGISWSGGITYYADSVKGRFTISRDNAKNTVYLQMNSLKPEDTAVYYCNTDYGLTTPVVWDDYWGQGTQVTVSS”, for which the “polyreactivity (PSR sort gate)” value is on record as “low polyreactivity”.

With “QVQLVESGGGLVQAGGSLRLSCAASGFTFSINTMGWYRQAPGKEREFVAGISRSGGSTYYADSVKGRFTISRDNAKNTVYLQMNSLKPEDTAVYYCLKYYQGYDYWGQGTQVTVSS”, the “polyreactivity (PSR sort gate)” value is “high polyreactivity”.

With “QVQLVESGGGLVQAGGSLRLSCAASGFTFSKNTMGWYRQAPGKERELVAVITRGGGTYYADSVKGRFTISRDNAKNTVYLQMNSLKPEDTAVYYCAVKRNTAYRQAYYLDDYWGQGTQVTVSS”, the “polyreactivity (PSR sort gate)” value is “high polyreactivity”.

Regarding “QVQLVESGGGLVQAGGSLRLSCAASGFTFSNYAMGWYRQAPGKERELVAAISKRGGSTYYADSVKGRFTISRDNAKNTVYLQRNSLKPEDTAVYYCAAYGGYIRRSVPVWGYYYWGQGTQVTVSS”, the “polyreactivity (PSR sort gate)” value is reported as “high polyreactivity”.

As for “QVQLVESGGGLVQAGGSLRLSCAASGFTFSNYAMGWYRQAPGKERELVAAISRSGGSTYYADSVKGRFTISRDNAKNTVYLQMNSLKPEDTAVYYCNADRYRVWYRRYDYWGQGTQVTVSS”, the “polyreactivity (PSR sort gate)” value is listed as “high polyreactivity”.

On to “QVQLVESGGGLVQAGGSLRLSCAASGFTFSPNAMGWYRQAHGKESELVAAIDWSGDRTYYADSVKGRFTISRDNAKKTVYLQINSLKPEDTAVYYCNVVRRSPGDYTYYYWGQGTQVTVSS”, for which the “polyreactivity (PSR sort gate)” value is “low polyreactivity”.

In the case of “QVQLVESGGGLVQAGGSLRLSCAASGFTFSPNARGWYRQAPGKERELVAAISKGGSSTYYADSVKGRFTISRDNAKNTVYLQMNSLKPEDTAVYYCARPSTHKGYDYWGQGTQVTVSS”, the “polyreactivity (PSR sort gate)” value was “high polyreactivity”.

As to “QVQLVESGGGLVQAGGSLRLSCAASGFTFSPYTMGWSRQAPGKERELVATIRYDGTSTYYADSVKGRFTISRDNAKNTVYLQMNSLKREDTAVYYCAAEIWRVYSTFYYWGQGTQVSVSS”, the “polyreactivity (PSR sort gate)” value was “low polyreactivity”.

As to “QVQLVESGGGLVQAGGSLRLSCAASGFTFSQYAMGWYRQAPGKERELVAAISRSGGSTYYADSVKGRFTISRDNAKNTVYLQMNSLKPEDTAVYYCAAQPGRRAGRSGFDYWGQCTQVTVSS”, the “polyreactivity (PSR sort gate)” value is on record as “high polyreactivity”.

Consider “QVQLVESGGGLVQAGGSLRLSCAASGFTFSRNAMGWYRQAPGKERELVAAIDSGGSTDYADSVKGRFTISRANAKKTVYLQMNSLKPEDTAVYYCAKASSATRYVQLRQDYDYWGQGTQVTVSS”, for which the “polyreactivity (PSR sort gate)” value is “low polyreactivity”.

With “QVQLVESGGGLVQAGGSLRLSCAASGFTFSRNAMGWYRQAPGKERELVAAITWSGGRTYYADSVKGRFTISRDNAKNTVYLQMNSLKPEDTAVYYCAARKYHLRSAYDYWGQGTQVTVSS”, the “polyreactivity (PSR sort gate)” value is on record as “low polyreactivity”.

With “QVQLVESGGGLVQAGGSLRLSCAASGFTFSRYAMGWYRQAPGKERELVAAISLRGGRTYYADSVKGRFTISRDKTKNSVYLQMNSLKPEDTAVYYCNRDYRGPYYYWGQGSQVTVSS”, the “polyreactivity (PSR sort gate)” value is given as “high polyreactivity”.

Turning to “QVQLVESGGGLVQAGGSLRLSCAASGFTFSRYAMGWYRQAPGKERELVAAITSRGGSTYYADSVKGRFTISRDNAKNTVYLQMNSLKPEDTAVYYCAARGWYATWLYYYWGQGTQVTVSS”, the “polyreactivity (PSR sort gate)” value is listed as “high polyreactivity”.
